Experimental data reported in article PMC8162069.

System: O=C[C@H](O)COP(=O)(O)O
Test: purified protein
Type: biochemical, Homo sapiens
Conditions: without HA

Substance | Km [µM] | kcat [s⁻¹] | kcat/Km [M⁻¹ s⁻¹]
Hs-GAPDH (Homo sapiens) | 240 ± 20 | 21.7 ± 1.67 | 90000
Hs-GAPDH (Homo sapiens; A232S/F233V) | 490 ± 210 | 7.67 ± 2 | 15700
